Test results as given in article doi:10.64898/2025.12.10.693372.

What was measured:
[1] = biological target: SARS-CoV-2 Omicron JD.1.1 spike (S-6P) (SARS-CoV-2) (UniProt P0DTC2); test: cryo-EM structure
[2] = biological target: SARS-CoV-2 Omicron LP.8.1 spike (S-6P) (SARS-CoV-2) (UniProt P0DTC2); test: cryo-EM structure

Substance	stoichiometry N [1]	stoichiometry N [2]
SARS-CoV-2 Omicron JD.1.1 spike (S-6P) (from UniProt P0DTC2 14-1211) (natural protein)	3	–
SARS-CoV-2 Omicron LP.8.1 spike (S-6P) (from UniProt P0DTC2 14-1211) (natural protein)	–	3
